Assay results: the supplement of paper PMC9170038

Test system: MS2 coat protein
Test: apparent KD of MS2 coat protein; higher = weaker reporter binding
Settings: Eterna round: R107
Procedure, shortened: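 Designed RNA switches were transcribed on-chip from Illumina sequencing clusters. SNAP-549-labelled MS2 coat protein was titrated onto them in twofold steps from 0.7 or 1.5 nM to 3 µM in 100 mM Tris-HCl pH 7.5, 80 mM KCl, 4 mM MgCl2, either without or with constant ligand. Apparent KD reflects the per-design median of normalised cluster binding-curve fits.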

[1] = input ligand: theophylline 20 uM
[2] = input ligand: theophylline 2 mM
[3] = input ligand: tryptophan 2.4 mM

| Sequence | apparent KD of MS2 coat protein (input ligand: arginine 13.2 mM) [nM] | apparent KD of MS2 coat protein (input ligand: none) [nM] | apparent KD of MS2 coat protein [1] [nM] | apparent KD of MS2 coat protein [2] [nM] | apparent KD of MS2 coat protein [3] [nM] |
| --- | --- | --- | --- | --- | --- |
| GGGUCGGGCGCGGCCGCCACUGCGGUGAUGUGACAUGAGGAUCACCCAUGUUGUCAUGUGGCACAUAGGACCGGGCGCCCGGCCC [#1 Exclusion - Tryptophan B Attempt #8 (HarryS)] | 34.7 | 29.1 | 46.8 | 34.7 | 29.1 |
| UGUAUGGACUGAAGGAGCGGGAAAAUAACUUGAGGAUCACCCAGGUAAAAGGCGAAAGCCACCCAGGUAGGUCGCAGUCCAUACU | 21.5 | 26.2 | 30.1 | 22.4 | 25.9 |
| GCAUCCUAGUCGGCCGCCACUGCAGGAUCGGCGGCAGAUCCUCAACAUGAGGAUCACCCAUGUAGCAGGACCGGGACUAGGAUGC [(Trp1)-(TM)''-(TM)'-(Ms2)-(Trp2)_Design2] | 36.3 | 91.6 | 80.3 | 48.1 | 99.8 |
| ACAUGAGGAUCACCCAUGUUCCUCGCCGAUACCAGUGAAGAAGUACGCCCUUGGCAGCGGAAAGAGUAUUUUGGAGAUGAGGUAC [6.Y] | 57 |  | 94.3 |  | 88.3 |
| UGACAUUGCUCAGAUACCAGACAUGAGCAUCAGCCAUGUACCAAGAGUACAUGUUAAAGUGUCCCUUGGCAGCUGAGCAAUGUCU [Mod of Eli's TheoBX5 #AlternateMS2 v3] | 56.4 | 70.9 | 193 | 603 | 72 |
| AAGUGGCACGGAAGGAGCGAGUUUACCUAUUACAUGAGGAUCACCCAUGUGUAUAAUGGGACUCAGGUAGGUCGCCGUUGUCACU [Same State Arginine B GF 25] | 31.5 | 35.7 | 49 | 44.3 | 31.6 |
| GCACGGUAGUCGGCCGCCACUGAAACAUGUGUCUACAUGAGGAUCACCCAUGUGGGUGUGUUUUGUAGGACCGGGACAAGACCCG [#11 Same State - Tryptophan B] | 16.8 | 19 | 28.1 | 18 | 17.2 |
| CACGCACGAUCGGCCGCCACUCAUGUAGCUUACAUGAGGAUCACCCAUGUAUUUUCUUUCUUUUAGAGGACCGGGAUCGUGCGUG [#03 Same State - Tryptophan B] | 25 |  | 48.5 | 35 |  |
| AGACAUGAGGAUCACCCAUGUAGUACGGAUACCAGAUCCAGAUGCGUCCCUUGGCAGCUGUAGUACAGCGUUACAUCGCUCGUAG [Exclusion - Theophylline A (Freestyle 24)] | 16.9 |  | 24.8 |  | 22.4 |
| UGUGCAGGAUGUGUAAAAGGUCUUGGGCAUCGAGGACCGGUACGGCCGCCACUCGGCUGUACAUGAGGAUCACCCAUGUCAGGGU [#1 Same State - Tryptophan A Attempt #21 (HarryS)] | 30.5 | 220 | 554 | 694 | 737 |
| UUAUAUACUACGGCCGCCACUGAACAUGAGGAUCACCCAUGUAAUGUUCAGACGUCUUUAGACGACAGGACCGGGUAGAAUUAAA [Tryptophan B 1] | 79.5 |  | 114 | 122 |  |
| AUGCAGGGCAACAGCCACUGUCACGGUGAUACCAGUACCCGUGCGUACCCUUGGCAGCAUCGUGGUACAUGAGGAUCACCCAUGU [Enatleceed] | 36.8 |  | 503 |  | 546 |
| AAUUCCUAACAUGAGGAUCACCCAUGUGAAGGAGCGCCGAAUAAGGCAGGUAGGUCGCACAUGGAACUGCUACGAAAGUAGAAAA [XArg-A 4 V2mod] | 19.2 | 16.2 | 23.3 | 35.1 | 18.8 |
